Reference: patent publication US20230365675A1 (published 2023)

B1: sdCD33_11 (VHH)
VHH: AVQLVESGGGLVQAGGSLRLSCAASGDTFANYAMGWFRQAPGKEREFVAAISWSDSSTHYADSVKGRFTIPRDNAKNAVYLQMDQLKPEDMAVYYCYAYIRGVGEVRYVDYWGQGTQVTVSS
notes: sdAb from a naive llama phage library; also called 430; sdAb430
B2: sdCD33_5 (VHH)
VHH: QVQLQESGGGLVQPGGSLRLSCAASGSVFSIYAMAWYRQAPGKQRELVAVITSGGATNYADSVKGRFTISRDIAKKTLYLQMNTLKPEDTAVYYCYAHLLIQPFDRFYDYWGQGTQVTVSS
notes: sdAb from a naive llama phage library; also called 413; sdAb413

Experiments:
[1] = molecular target: CD33-GFP fusion protein, wild type (WT), on 293FT cells (UniProt P20138); test: FACS, WT CD33-GFP on 293FT cells; also: unit not given here
Chain of CD33-GFP fusion protein, wild type (WT), on 293FT cells (P20138 18-364): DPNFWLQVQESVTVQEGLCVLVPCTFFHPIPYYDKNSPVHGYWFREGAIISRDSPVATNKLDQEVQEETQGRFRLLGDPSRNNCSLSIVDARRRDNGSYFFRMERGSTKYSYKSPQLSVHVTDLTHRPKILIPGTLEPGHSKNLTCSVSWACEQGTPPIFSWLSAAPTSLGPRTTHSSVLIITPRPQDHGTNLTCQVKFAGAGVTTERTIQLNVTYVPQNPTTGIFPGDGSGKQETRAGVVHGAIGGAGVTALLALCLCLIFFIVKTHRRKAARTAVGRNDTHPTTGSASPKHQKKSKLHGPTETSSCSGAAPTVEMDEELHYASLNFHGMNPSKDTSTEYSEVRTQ

[2] = molecular target: Mutant CD33-GFP JS23 (L23N) on 293FT cells (UniProt P20138); test: FACS, mutant CD33-GFP on 293FT cells
Chain of Mutant CD33-GFP JS23 (L23N) on 293FT cells (P20138 18-364 L23N): as the sequence (P20138 18-364) above, with L6N counted along it

[3] = molecular target: Mutant CD33-GFP JS24 (Q24E) on 293FT cells (UniProt P20138); test: FACS, mutant CD33-GFP on 293FT cells
Chain of Mutant CD33-GFP JS24 (Q24E) on 293FT cells (P20138 18-364 Q24E): as the sequence (P20138 18-364) above, with Q7E counted along it

[4] = molecular target: Mutant CD33-GFP JS25 (V25M) on 293FT cells (UniProt P20138); test: FACS, mutant CD33-GFP on 293FT cells
Chain of Mutant CD33-GFP JS25 (V25M) on 293FT cells (P20138 18-364 V25M): as the sequence (P20138 18-364) above, with V8M counted along it

[5] = molecular target: Mutant CD33-GFP JS28 (S28L) on 293FT cells (UniProt P20138); test: FACS, mutant CD33-GFP on 293FT cells
Chain of Mutant CD33-GFP JS28 (S28L) on 293FT cells (P20138 18-364 S28L): as the sequence (P20138 18-364) above, with S11L counted along it

[6] = molecular target: Mutant CD33-GFP M10 (Y127A) on 293FT cells (UniProt P20138); test: FACS, mutant CD33-GFP on 293FT cells
Chain of Mutant CD33-GFP M10 (Y127A) on 293FT cells (P20138 18-364 Y127A): as the sequence (P20138 18-364) above, with Y110A counted along it

[7] = molecular target: Mutant CD33-GFP M11 (L78T) on 293FT cells (UniProt P20138); test: FACS, mutant CD33-GFP on 293FT cells
Chain of Mutant CD33-GFP M11 (L78T) on 293FT cells (P20138 18-364 L78T): as the sequence (P20138 18-364) above, with L61T counted along it

[8] = molecular target: Mutant CD33-GFP M12 (G88S) on 293FT cells (UniProt P20138); test: FACS, mutant CD33-GFP on 293FT cells
Chain of Mutant CD33-GFP M12 (G88S) on 293FT cells (P20138 18-364 G88S): as the sequence (P20138 18-364) above, with G71S counted along it

[9] = molecular target: Mutant CD33-GFP M13 (R91E) on 293FT cells (UniProt P20138); test: FACS, mutant CD33-GFP on 293FT cells
Chain of Mutant CD33-GFP M13 (R91E) on 293FT cells (P20138 18-364 R91E): as the sequence (P20138 18-364) above, with R74E counted along it

[10] = molecular target: Mutant CD33-GFP M14 (E170R) on 293FT cells (UniProt P20138); test: FACS, mutant CD33-GFP on 293FT cells
Chain of Mutant CD33-GFP M14 (E170R) on 293FT cells (P20138 18-364 E170R): as the sequence (P20138 18-364) above, with E153R counted along it

[11] = molecular target: Mutant CD33-GFP M15 (Q171A) on 293FT cells (UniProt P20138); test: FACS, mutant CD33-GFP on 293FT cells
Chain of Mutant CD33-GFP M15 (Q171A) on 293FT cells (P20138 18-364 Q171A): as the sequence (P20138 18-364) above, with Q154A counted along it

[12] = molecular target: Mutant CD33-GFP M16 (4889AII) on 293FT cells (UniProt P20138); test: FACS, mutant CD33-GFP on 293FT cells
[13] = molecular target: Mutant CD33-GFP M17 (F21Y) on 293FT cells (UniProt P20138); test: FACS, mutant CD33-GFP on 293FT cells
Chain of Mutant CD33-GFP M17 (F21Y) on 293FT cells (P20138 18-364 F21Y): as the sequence (P20138 18-364) above, with F4Y counted along it

[14] = molecular target: Mutant CD33-GFP M18 (353AAL) on 293FT cells (UniProt P20138); test: FACS, mutant CD33-GFP on 293FT cells
[15] = molecular target: Mutant CD33-GFP M19 (348ATAI) on 293FT cells (UniProt P20138); test: FACS, mutant CD33-GFP on 293FT cells
[16] = molecular target: Mutant CD33-GFP M4 (R122D) on 293FT cells (UniProt P20138); test: FACS, mutant CD33-GFP on 293FT cells
Chain of Mutant CD33-GFP M4 (R122D) on 293FT cells (P20138 18-364 R122D): as the sequence (P20138 18-364) above, with R105D counted along it

[17] = molecular target: Mutant CD33-GFP M5 (AEAD), quadruple mutant, on 293FT cells (UniProt P20138); test: FACS, mutant CD33-GFP on 293FT cells
Chain of Mutant CD33-GFP M5 (AEAD), quadruple mutant, on 293FT cells (P20138 other isoform, or with tags, fused parts or gaps mutant): as the sequence (P20138 18-364) above, with W5A, H28E, N82A, R105D counted along it

[18] = molecular target: Mutant CD33-GFP M9 (Y49, 50A) on 293FT cells (UniProt P20138); test: FACS, mutant CD33-GFP on 293FT cells
Chain of Mutant CD33-GFP M9 (Y49, 50A) on 293FT cells (P20138 other isoform, or with tags, fused parts or gaps mutant): as the sequence (P20138 18-364) above, with Y32A, Y33A counted along it

[19] = molecular target: Mutant CD33-GFP N20D on 293FT cells (UniProt P20138); test: FACS, mutant CD33-GFP on 293FT cells
Chain of Mutant CD33-GFP N20D on 293FT cells (P20138 18-364 N20D): as the sequence (P20138 18-364) above, with N3D counted along it

[20] = molecular target: T1, Mutant CD33-GFP M1 (W22A) on 293FT cells (UniProt P20138 18-364); test: FACS, mutant CD33-GFP on 293FT cells
T1 construct: whole, on cells; not shown: GFP fused to CD33
T1 sequence (P20138 18-364 W22A): as the sequence (P20138 18-364) above, with W5A counted along it

[21] = molecular target: T2, Mutant CD33-GFP M2 (H45E) on 293FT cells (UniProt P20138 18-364); test: FACS, mutant CD33-GFP on 293FT cells
T2 construct: whole, on cells; not shown: GFP fused to CD33
T2 sequence (P20138 18-364 H45E): as the sequence (P20138 18-364) above, with H28E counted along it

[22] = molecular target: T3, Mutant CD33-GFP M3 (N99A) on 293FT cells (UniProt P20138 18-364); test: FACS, mutant CD33-GFP on 293FT cells
T3 construct: whole, on cells; not shown: GFP fused to CD33
T3 sequence (P20138 18-364 N99A): as the sequence (P20138 18-364) above, with N82A counted along it

[23] = molecular target: T4, Mutant CD33-GFP M6 (F43N) on 293FT cells (UniProt P20138 18-364); test: FACS, mutant CD33-GFP on 293FT cells
T4 construct: whole, on cells; not shown: GFP fused to CD33
T4 sequence (P20138 18-364 F43N): as the sequence (P20138 18-364) above, with F26N counted along it

[24] = molecular target: T5, Mutant CD33-GFP M7 (R98D) on 293FT cells (UniProt P20138 18-364); test: FACS, mutant CD33-GFP on 293FT cells
T5 construct: whole, on cells; not shown: GFP fused to CD33
T5 sequence (P20138 18-364 R98D): as the sequence (P20138 18-364) above, with R81D counted along it

[25] = molecular target: T6, Mutant CD33-GFP M8 (K52A) on 293FT cells (UniProt P20138 18-364); test: FACS, mutant CD33-GFP on 293FT cells
T6 construct: whole, on cells; not shown: GFP fused to CD33
T6 sequence (P20138 18-364 K52A): as the sequence (P20138 18-364) above, with K35A counted along it

[26] = molecular target: Biotinylated CD33 protein (UniProt P20138); test: Octet competition on biotinylated CD33; competitor 348
Chain of Biotinylated CD33 protein (P20138 18-259 limits assumed): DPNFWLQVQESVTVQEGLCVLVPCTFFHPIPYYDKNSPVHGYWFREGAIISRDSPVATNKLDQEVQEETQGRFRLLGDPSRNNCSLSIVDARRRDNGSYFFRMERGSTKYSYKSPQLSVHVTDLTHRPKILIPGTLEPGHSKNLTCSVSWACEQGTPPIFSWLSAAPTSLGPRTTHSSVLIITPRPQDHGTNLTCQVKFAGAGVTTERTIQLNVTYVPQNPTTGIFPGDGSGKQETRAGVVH

[27] = molecular target: Biotinylated CD33 protein (UniProt P20138); test: Octet competition on biotinylated CD33; competitor 353
[28] = molecular target: Biotinylated CD33 protein (UniProt P20138); test: Octet competition on biotinylated CD33; competitor 389
[29] = molecular target: Biotinylated CD33 protein (UniProt P20138); test: Octet competition on biotinylated CD33; competitor 413
[30] = molecular target: Biotinylated CD33 protein (UniProt P20138); test: Octet competition on biotinylated CD33; competitor 416
[31] = molecular target: Biotinylated CD33 protein (UniProt P20138); test: Octet competition on biotinylated CD33; competitor 420
[32] = molecular target: Biotinylated CD33 protein (UniProt P20138); test: Octet competition on biotinylated CD33; competitor 424
[33] = molecular target: Biotinylated CD33 protein (UniProt P20138); test: Octet competition on biotinylated CD33; competitor 426
[34] = molecular target: Biotinylated CD33 protein (UniProt P20138); test: Octet competition on biotinylated CD33; competitor 429
[35] = molecular target: Biotinylated CD33 protein (UniProt P20138); test: Octet competition on biotinylated CD33; competitor h195
CD33 on MOLM-13 cells = molecular target: T7, CD33 on MOLM-13 cells (human, UniProt P20138 18-364); test: FACS, MOLM-13 cells expressing CD33 against MOLM-13 CD33 knockout
T7 construct: whole, on cells; also called MOLM-13 cell line expressing CD33; wild-type MOLM-13 cells (CD33+)
T7 sequence (P20138 18-364): as the sequence (P20138 18-364) above
Source text: A naïve llama phage library was panned and screened to identify single domain antibodies that specifically recognize CD33. A MOLM-13 cell line expressing CD33 was used as a CD33-positive cell line, and a MOLM-13 cell line harboring a knockout of CD33 was used as a CD-33 negative cell line. A purified anti-human CD33 antibody was used as a positive control. Specific binding activity of identified binders was confirmed by FACS. The heavy chain variable region sequences of the identified binders are included herein.

[36] = molecular target: Biotinylated CD33 protein (UniProt P20138); test: Octet competition on biotinylated CD33; competitor 430

| Binder | FACS binding data [1] | FACS binding data [2] | FACS binding data [3] | FACS binding data [4] | FACS binding data [5] | FACS binding data [6] | FACS binding data [7] | FACS binding data [8] | FACS binding data [9] | FACS binding data [10] | FACS binding data [11] | FACS binding data [12] | FACS binding data [13] | FACS binding data [14] | FACS binding data [15] | FACS binding data [16] | FACS binding data [17] | FACS binding data [18] | FACS binding data [19] | FACS binding data [20] | further results |
| --- | --- | --- | --- | --- | --- | --- | --- | --- | --- | --- | --- | --- | --- | --- | --- | --- | --- | --- | --- | --- | --- |
| B1 | 97.6 | 99.2 | 99.6 | 99.7 | 99.7 | 94.2 | 73.8 | 98.5 | 98.7 | 97.4 | 97.2 | 97.4 | 96.1 | 99.4 | 99.8 | 98.4 | 0.79 | 1.01 | 97.5 | 99.4 | FACS binding data [21]: 99.3; FACS binding data [22]: 99.3; FACS binding data [23]: 98.8; FACS binding data [24]: 98.5; FACS binding data [25]: 97.1; Octet signal [26]: -0.212; Octet signal [27]: -0.112; Octet signal [28]: 0.0436; Octet signal [29]: -0.108; Octet signal [30]: -0.268; Octet signal [31]: -0.169; Octet signal [32]: -0.377; Octet signal [33]: -0.227; Octet signal [34]: -0.29; Octet signal [35]: 0.136; binding result (CD33 on MOLM-13 cells): binds |
| B2 | 98 | 98.4 | 97 | 99.5 | 99.4 | 90.2 | 58.5 | 98.6 | 98.5 | 98.2 | 98.6 | 98.3 | 84.6 | 49.2 | 99.3 | 76 | 0.81 | 0.79 | 56.7 | 76.4 | FACS binding data [21]: 5.93; FACS binding data [22]: 96.8; FACS binding data [23]: 97.5; FACS binding data [24]: 97; FACS binding data [25]: 91.4; Octet signal [26]: -0.024; Octet signal [27]: 0.248; Octet signal [28]: 0.483; Octet signal [30]: -0.0586; Octet signal [31]: 0.15; Octet signal [32]: -0.0796; Octet signal [33]: 0.0667; Octet signal [34]: -0.0887; Octet signal [36]: 0.63; Octet signal [35]: 0.648; binding result (CD33 on MOLM-13 cells): binds |
